# Test results: IntAct's records for PubMed 17485491
# B1: Serine/threonine-protein kinase D1 (Mus musculus), Q62101 (parent)
# chain: MSVPPLLRPPSPLLPAAAAVAAAAAALVPGSGPAPFPAPGAAPAGGISFHLQIGLSREPVLLLQDSSGDYSLAHVREMACSIVDQKFPECGFYGLYDKILLFRHDPASDNILQLVKIASDIQEGDLIEVVLSASATFEDFQIRPHALFVHSYRAPAFCDHCGEMLWGLVRQGLKCEGCGLNYHKRCAFKIPNNCSGVRRRRLSNVSLTGLGTVRTASAEFSTSVPDEPLLSPVSPGFEQKSPSESFIGREKRSNSQSYIGRPIQLDKLLMSKVKVPHTFVIHSYTRPTVCQFCKKLLKGLFRQGLQCKDCRFNCHKRCAPKVPNNCLGEVTINGELLSPGAESDVVMEEGSDDNDSERNSGLMDDMDEAMVQDTEMALAEGQSGGAEMQDPDADQEDSNRTISPSTSNNIPLMRVVQSVKHTKRRSSTVMKEGWMVHYTSKDTLRKRHYWRLDSKCITLFQNDTGSRYYKEIPLSEILCLEPAKPSALTPVGATPHCFEITTANVVYYVGENVVNPSSSPPNNSVLPSGIGPDVARMWEVAIQHALMPVIPKGSSVGSGSNSHKDISVSISVSNCQIQENVDISTVYQIFPDEVLGSGQFGIVYGGKHRKTGRDVAIKIIDKLRFPTKQESQLRNEVAILQNLHHPGVVNLECMFETPERVFVVMEKLHGDMLEMILSSEKGRLPEHITKFLITQILVALRHLHFKNIVHCDLKPENVLLASADPFPQVKLCDFGFARIIGEKSFRRSVVGTPAYLAPEVLRNKGYNRSLDMWSVGVIIYVSLSGTFPFNEDEDIHDQIQNAAFMYPPNPWKEISHEAIDLINNLLQVKMRKRYSVDKTLSHPWLQDYQTWLDLRELECRIGERYITHESDDSRWEQYAGEQGLQYPAHLISLSASHSDSPEAEEREMKALSERVSIL
# Variants of: B1
# Details: with itb3_human ITGB3, P05106
# Chain of itb3_human ITGB3, P05106 (P05106 whole entry): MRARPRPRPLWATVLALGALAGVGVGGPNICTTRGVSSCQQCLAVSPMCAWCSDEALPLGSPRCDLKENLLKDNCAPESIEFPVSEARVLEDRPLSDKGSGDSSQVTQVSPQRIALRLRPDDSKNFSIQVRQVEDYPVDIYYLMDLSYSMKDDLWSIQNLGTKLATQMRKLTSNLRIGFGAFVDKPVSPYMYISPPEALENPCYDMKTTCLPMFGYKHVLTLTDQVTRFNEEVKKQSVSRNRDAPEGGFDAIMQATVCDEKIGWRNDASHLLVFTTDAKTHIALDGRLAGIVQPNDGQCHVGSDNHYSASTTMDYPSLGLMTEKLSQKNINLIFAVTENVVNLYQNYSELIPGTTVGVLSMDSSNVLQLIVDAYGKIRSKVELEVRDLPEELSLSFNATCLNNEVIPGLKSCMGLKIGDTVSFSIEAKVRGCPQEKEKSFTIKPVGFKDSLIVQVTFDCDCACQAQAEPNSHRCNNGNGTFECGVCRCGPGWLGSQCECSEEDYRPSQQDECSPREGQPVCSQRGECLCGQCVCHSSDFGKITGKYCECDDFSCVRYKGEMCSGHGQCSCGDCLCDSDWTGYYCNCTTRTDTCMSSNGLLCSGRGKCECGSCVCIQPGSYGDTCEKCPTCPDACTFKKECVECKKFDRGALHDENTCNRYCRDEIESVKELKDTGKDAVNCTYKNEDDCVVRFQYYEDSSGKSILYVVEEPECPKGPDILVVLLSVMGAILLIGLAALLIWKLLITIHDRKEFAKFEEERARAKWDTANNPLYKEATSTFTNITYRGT
row,Variant,effect of a mutation on the interaction
1,S916A,decreasing interaction

# Variants of: B1
# Details: with itb3_human ITGB3, P05106
# Remark: another data set of the same source
row,Variant,effect of a mutation on the interaction
1,S916A,disrupting interaction
